The RNAGym collection of RNA variant scans (doi:10.1021/acssynbio.7b00057)

B1: Pistol ribozyme (parent)
chain: GGGUCGUUGUUCCAUAAUCGCGUGGAUAUGGCACGCAAGUUUCUACCGGGCACCGUAAAUGUCCGACUGGAGCCGUUCGGGCGGCUAUAAACAGACCUCAGGCCCGAAGCGUGGCGGCACCUGCCGCCGGUGGUAAAAAAGAUCGGAAGAGCACACGUCU

Variants of: B1
Assay: aptazyme ON/OFF ratio, guanine; higher = stronger switching; co-transcriptional cleavage with and without guanine

Row | Variant | aptazyme ON/OFF ratio
1 | U7G G9U U10G U11A C13G | 1.16
2 | U7G G9U U10G U11A C13A | 1.15
3 | U7G G9U U10G U11A C13U | 1.17
4 | U7G G9U U10C U11G C12U | 1.49
5 | U7G G9U U10G C12U C13U | 1.25
6 | U7G G9U U10G C12U C13A | 1.28
7 | U7G G9U U10G C12U C13G | 1.34
8 | U7G U8A | 1.54
9 | U7G G9U U11A C12U | 1.32
10 | U7G G9U U11A C12G | 1.46
11 | U7G G9U U11A C12A | 1.56
12 | U7G U8A G9A C13G | 1.09
13 | U7G U8A G9A C13A | 1.25
14 | U7G U8A G9A C13U | 1.23
15 | U7G G9U U11G C12G C13G | 1.21
16 | U7G G9U U11G C12G C13A | 1.19
17 | U7G G9U U11G C12G C13U | 1.29
18 | U7G G9U U11C C12A C13A | 1.42
19 | U7G G9U U11C C12A C13U | 1.41
20 | U7G G9U U11C C12A C13G | 1.28
21 | U7G G9U U10G U11A C12G | 1.26
22 | U7G G9U U10G U11A C12U | 1.27
23 | U7G G9U U10G U11A C12A | 1.15
24 | U7G G9U U11A C12U C13A | 1.25

Row | Variant | aptazyme ON/OFF ratio
25 | U7G G9U U11A C12U C13G | 1.27
26 | U7G G9U U11A C12U C13U | 1.07
27 | U7G G9U U11A C12G C13G | 1.23
28 | U7G G9U U11A C12G C13U | 1.36
29 | U7G G9U U11A C12G C13A | 1.1
30 | U7G G9U U11A | 1.42
31 | U7G G9U U11G | 2.13
32 | U7G G9U U11C | 4.69
33 | U7G G9U U11G C12G | 1.74
34 | U7G G9U U11G C12A | 1.82
35 | U7G G9U U11G C12U | 1.2
36 | U7G U8A C12A | 1.27
37 | U7G U8A C12U | 1.44
38 | U7G U8A C12G | 1.35
39 | U7G G9U U10C U11G C12U C13U | 1.22
40 | U7G G9U U10C U11G C12U C13A | 1.22
41 | U7G G9U U10C U11G C12U C13G | 1.23
42 | U7G U8A G9A C12A C13U | 1.1
43 | U7G U8A G9A C12A C13A | 1.25
44 | U7G U8A G9A C12A C13G | 1.11
45 | U7G G9U U10G C12A C13U | 1.41
46 | U7G G9U U10G C12A C13G | 1.12
47 | U7G G9U U10G C12A C13A | 1.12
48 | U7G U8A G9A U10A C12G | 1.19

Row | Variant | aptazyme ON/OFF ratio
49 | U7G U8A G9A U10A C12A | 1.17
50 | U7G U8A G9A U10A C12U | 1.19
51 | U7G U8A C13G | 1.41
52 | U7G U8A C13U | 0.972
53 | U7G U8A C13A | 1.35
54 | U7G G9U U10G C13G | 1.21
55 | U7G G9U U10G C13A | 1.39
56 | U7G G9U U10G C13U | 1.48
57 | U7G U8A G9A U10A | 1.77
58 | U7G U8A G9A C12G C13A | 1.13
59 | U7G U8A G9A C12G C13G | 1.04
60 | U7G U8A G9A C12G C13U | 1.11
61 | U7G U8A G9A C12G | 1.18
62 | U7G U8A G9A C12U | 1.12
63 | U7G U8A G9A C12A | 1.06
64 | U7G U8A G9A C12U C13A | 1.13
65 | U7G U8A G9A C12U C13G | 1.1
66 | U7G U8A G9A C12U C13U | 1.08
67 | U7G G9U U10C U11G C13G | 1.22
68 | U7G G9U U10C U11G C13A | 1.32
69 | U7G G9U U10C U11G C13U | 1.38
70 | U7G U8A G9A U10A C12G C13G | 1.09
71 | U7G U8A G9A U10A C12G C13A | 1.06
72 | U7G U8A G9A U10A C12G C13U | 1.1

Row | Variant | aptazyme ON/OFF ratio
73 | U7G G9U U10G U11G C12G | 1.16
74 | U7G G9U U10G U11G C12A | 1.11
75 | U7G G9U U10G U11G C12U | 1.29
76 | U7G G9U U11G C12A C13A | 1.11
77 | U7G G9U U11G C12A C13U | 1.26
78 | U7G G9U U11G C12A C13G | 1.2
79 | U7G G9U U10G U11A C12A C13U | 1.16
80 | U7G G9U U10G U11A C12A C13G | 1.06
81 | U7G G9U U10G U11A C12A C13A | 1.16
82 | U7G G9U U10G U11C C12G C13A | 1.16
83 | U7G G9U U10G U11C C12G C13U | 1.36
84 | U7G G9U U10G U11C C12G C13G | 1.07
85 | U7G G9U U11C C12G C13U | 1.37
86 | U7G G9U U11C C12G C13A | 1.22
87 | U7G G9U U11C C12G C13G | 1.26
88 | U7G U8A G9A U10A C13A | 1.19
89 | U7G U8A G9A U10A C13U | 1.11
90 | U7G U8A G9A U10A C13G | 1.1
91 | U7G G9U U10G U11C C12U C13A | 1.23
92 | U7G G9U U10G U11C C12U C13G | 1.25
93 | U7G G9U U10G U11C C12U C13U | 1.44
94 | U7G G9U U10G U11A C12G C13U | 1.18
95 | U7G G9U U10G U11A C12G C13A | 1.19
96 | U7G G9U U10G U11A C12G C13G | 1.17

Row | Variant | aptazyme ON/OFF ratio
97 | U7G G9U U11C C12G | 1.74
98 | U7G G9U U11C C12A | 1.61
99 | U7G G9U U11C C12U | 2.32
100 | U7G G9U U10G U11G C12G C13G | 1.17
101 | U7G G9U U10G U11G C12G C13A | 1.1
102 | U7G G9U U10G U11G C12G C13U | 1.27
103 | U7G G9U U10G | 3.04
104 | U7G G9U U10G U11G C13U | 1.3
105 | U7G G9U U10G U11G C13A | 1.22
106 | U7G G9U U10G U11G C13G | 1.18
107 | U7G U8A C12G C13A | 1.51
108 | U7G U8A C12G C13G | 1.17
109 | U7G U8A C12G C13U | 1.46
110 | U7G G9U U11C C12U C13U | 1.31
111 | U7G G9U U11C C12U C13A | 1.37
112 | U7G G9U U11C C12U C13G | 1.3
113 | U7G G9U U11G C12U C13A | 1.31
114 | U7G G9U U11G C12U C13G | 1.37
115 | U7G G9U U11G C12U C13U | 1.44
116 | U7G U8A G9A U10A C12A C13G | 1.12
117 | U7G U8A G9A U10A C12A C13U | 1.14
118 | U7G U8A G9A U10A C12A C13A | 1.2
119 | U7G G9U U10G C12G C13U | 1.4
120 | U7G G9U U10G C12G C13G | 1.2

Row | Variant | aptazyme ON/OFF ratio
121 | U7G G9U U10G C12G C13A | 1.15
122 | U7G G9U U11G C13U | 1.26
123 | U7G G9U U11G C13A | 1.3
124 | U7G G9U U11G C13G | 1.3
125 | U7G G9U U10G U11A C12U C13A | 1.17
126 | U7G G9U U10G U11A C12U C13G | 1.17
127 | U7G G9U U10G U11A C12U C13U | 1.23
128 | U7G U8A G9A U10A C12U C13G | 1.07
129 | U7G U8A G9A U10A C12U C13A | 1.13
130 | U7G U8A G9A U10A C12U C13U | 1.03
131 | U7G G9U U11C C13G | 1.05
132 | U7G G9U U11C C13A | 1.37
133 | U7G G9U U11C C13U | 1.65
134 | U7G G9U U10G U11G C12A C13A | 1.11
135 | U7G G9U U10G U11G C12A C13G | 1.07
136 | U7G G9U U10G U11G C12A C13U | 1.19
137 | U7G G9U U10G U11C C12A C13G | 1.23
138 | U7G G9U U10G U11C C12A C13U | 1.33
139 | U7G G9U U10G U11C C12A C13A | 1.14
140 | U7G U8A G9A | 2.45
141 | U7G U8A C12U C13G | 1.38
142 | U7G U8A C12U C13A | 1.43
143 | U7G U8A C12U C13U | 1.42
144 | U7G G9U U11A C12A C13A | 1.3

Row | Variant | aptazyme ON/OFF ratio
145 | U7G G9U U11A C12A C13U | 1.43
146 | U7G G9U U11A C12A C13G | 1.23
147 | U7G G9U U10G U11G C12U C13G | 1.05
148 | U7G G9U U10G U11G C12U C13U | 1.29
149 | U7G G9U U10G U11G C12U C13A | 1.22
150 | U7G G9U U11A C13A | 1.34
151 | U7G G9U U11A C13U | 1.27
152 | U7G G9U U11A C13G | 1.13
153 | U7G G9U U10G C12A | 1.7
154 | U7G G9U U10G C12U | 1.55
155 | U7G G9U U10G C12G | 1.36
156 | U7G G9U U10G U11A | 1.23
157 | U7G G9U U10G U11G | 1.74
158 | U7G G9U U10G U11C | 1.13
159 | U7G U8A C12A C13U | 1.23
160 | U7G U8A C12A C13G | 1.14
161 | U7G U8A C12A C13A | 1.27
162 | U7G G9U U10G U11C C12G | 1.48
163 | U7G G9U U10G U11C C12A | 1.62
164 | U7G G9U U10G U11C C12U | 1.17
165 | U7G G9U U10G U11C C13G | 1.11
166 | U7G G9U U10G U11C C13U | 1.1
167 | U7G G9U U10G U11C C13A | 1.2
